Test results: article doi:10.1101/2025.05.07.652675 (bioRxiv, 2025)

B1: 6×His-ZapC (natural protein)
chain: not shown
B2: FtsZ (wild type, untagged) (natural protein)
chain: MFEPMELTNDAVIKVIGVGGGGGNAVEHMVRERIEGVEFFAVNTDAQALRKTAVGQTIQIGSGITKGLGAGANPEVGRNAADEDRDALRAALEGADMVFIAAGMGGGTGTGAAPVVAEVAKDLGILTVAVVTKPFNFEGKKRMAFAEQGITELSKHVDSLITIPNDKLLKVLGRGISLLDAFGAANDVLKGAVQGIAELITRPGLMNVDFADVRTVMSEMGYAMMGSGVASGEDRAEEAAEMAISSPLLEDIDLSGARGVLVNITAGFDLRLDEFETVGNTIRAFASDNATVVIGTSLDPDMNDELRVTVVATGIGMDKRPEITLVTNKQVQQPVMDRYQQHGMAPLTQEQKPVAKVVNDNAPQTAKEPDYLDIPAFLRKQAD
B3: FtsZ^F285S (untagged) (natural protein)
chain: MFEPMELTNDAVIKVIGVGGGGGNAVEHMVRERIEGVEFFAVNTDAQALRKTAVGQTIQIGSGITKGLGAGANPEVGRNAADEDRDALRAALEGADMVFIAAGMGGGTGTGAAPVVAEVAKDLGILTVAVVTKPFNFEGKKRMAFAEQGITELSKHVDSLITIPNDKLLKVLGRGISLLDAFGAANDVLKGAVQGIAELITRPGLMNVDFADVRTVMSEMGYAMMGSGVASGEDRAEEAAEMAISSPLLEDIDLSGARGVLVNITAGFDLRLDEFETVGNTIRASASDNATVVIGTSLDPDMNDELRVTVVATGIGMDKRPEITLVTNKQVQQPVMDRYQQHGMAPLTQEQKPVAKVVNDNAPQTAKEPDYLDIPAFLRKQAD
B4: FtsZ^D360Y (untagged) (natural protein)
chain: MFEPMELTNDAVIKVIGVGGGGGNAVEHMVRERIEGVEFFAVNTDAQALRKTAVGQTIQIGSGITKGLGAGANPEVGRNAADEDRDALRAALEGADMVFIAAGMGGGTGTGAAPVVAEVAKDLGILTVAVVTKPFNFEGKKRMAFAEQGITELSKHVDSLITIPNDKLLKVLGRGISLLDAFGAANDVLKGAVQGIAELITRPGLMNVDFADVRTVMSEMGYAMMGSGVASGEDRAEEAAEMAISSPLLEDIDLSGARGVLVNITAGFDLRLDEFETVGNTIRAFASDNATVVIGTSLDPDMNDELRVTVVATGIGMDKRPEITLVTNKQVQQPVMDRYQQHGMAPLTQEQKPVAKVVNYNAPQTAKEPDYLDIPAFLRKQAD
B5: FtsZ^I323L (untagged) (natural protein)
chain: MFEPMELTNDAVIKVIGVGGGGGNAVEHMVRERIEGVEFFAVNTDAQALRKTAVGQTIQIGSGITKGLGAGANPEVGRNAADEDRDALRAALEGADMVFIAAGMGGGTGTGAAPVVAEVAKDLGILTVAVVTKPFNFEGKKRMAFAEQGITELSKHVDSLITIPNDKLLKVLGRGISLLDAFGAANDVLKGAVQGIAELITRPGLMNVDFADVRTVMSEMGYAMMGSGVASGEDRAEEAAEMAISSPLLEDIDLSGARGVLVNITAGFDLRLDEFETVGNTIRAFASDNATVVIGTSLDPDMNDELRVTVVATGIGMDKRPELTLVTNKQVQQPVMDRYQQHGMAPLTQEQKPVAKVVNDNAPQTAKEPDYLDIPAFLRKQAD
B6: FtsZ^A376T (untagged) (natural protein)
chain: MFEPMELTNDAVIKVIGVGGGGGNAVEHMVRERIEGVEFFAVNTDAQALRKTAVGQTIQIGSGITKGLGAGANPEVGRNAADEDRDALRAALEGADMVFIAAGMGGGTGTGAAPVVAEVAKDLGILTVAVVTKPFNFEGKKRMAFAEQGITELSKHVDSLITIPNDKLLKVLGRGISLLDAFGAANDVLKGAVQGIAELITRPGLMNVDFADVRTVMSEMGYAMMGSGVASGEDRAEEAAEMAISSPLLEDIDLSGARGVLVNITAGFDLRLDEFETVGNTIRAFASDNATVVIGTSLDPDMNDELRVTVVATGIGMDKRPEITLVTNKQVQQPVMDRYQQHGMAPLTQEQKPVAKVVNDNAPQTAKEPDYLDIPTFLRKQAD
B7: ZapC (untagged) (natural protein)
chain: not shown

Key:
[1] = target: B2; assay: BLI
[2] = target: B3; assay: BLI
[3] = target: B6; assay: co-sedimentation
[4] = target: B5; assay: co-sedimentation
[5] = target: B4; assay: co-sedimentation
[6] = target: the molecule itself; assay: sedimentation of polymers by ultracentrifugation
[7] = target: 6×His-ZapC F30D K94D double mutant (E. coli, UniProt P75862 1-180, F30D | K94D); assay: BLI
[8] = target: the molecule itself; assay: negative stain electron microscopy
[9] = target: T1, SUMO-FtsZ (6×His-SUMO fusion of full length FtsZ) (E. coli, UniProt P0A9A6 1-383); assay: BLI
T1 sequence: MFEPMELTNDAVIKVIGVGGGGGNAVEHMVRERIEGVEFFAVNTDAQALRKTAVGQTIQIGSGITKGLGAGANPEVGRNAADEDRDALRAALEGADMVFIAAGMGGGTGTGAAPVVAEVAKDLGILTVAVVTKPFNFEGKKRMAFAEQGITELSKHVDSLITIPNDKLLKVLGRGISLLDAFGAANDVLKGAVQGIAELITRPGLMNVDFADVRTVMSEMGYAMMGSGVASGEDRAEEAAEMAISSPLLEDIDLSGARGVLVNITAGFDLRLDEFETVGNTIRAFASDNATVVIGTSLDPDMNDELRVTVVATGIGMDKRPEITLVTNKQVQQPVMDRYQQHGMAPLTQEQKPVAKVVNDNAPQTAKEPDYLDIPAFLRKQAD

[10] = target: B7; assay: BLI
[11] = target: B1; assay: BLI

Q: For B1, which Kd [1] is on record?
A: Its Kd is 0.39 µM.

Q: What about the Kd [2] of the same binder?
A: Its Kd is 6.37 µM.

Q: Does B1 bind [3]?
A: Result: binds

Q: Does B1 bind [4]?
A: Result: binds

Q: Does B1 bind [5]?
A: Result: binds

Q: What does the source list for B2?
A: binding result [6]: binds; Kd relative to wild-type ZapC (times higher) [7]: 12 times

Q: Does B3 bind [6]?
A: Result: binds

Q: Does B4 bind [8]?
A: Result: binds

Q: Does B5 bind [8]?
A: Result: binds

Q: Does B6 bind [8]?
A: Result: binds

Q: For B7, which Kd [9] is on record?
A: The Kd was 1.5 µM.

B8: SUMO-FtsZ^316-383 (domain or fragment)
chain: GMDKRPEITLVTNKQVQQPVMDRYQQHGMAPLTQEQKPVAKVVNDNAPQTAKEPDYLDIPAFLRKQAD
Q: With B8 as the binder, how does the Kd [10] read?
A: Its Kd is 10 µM.

B9: FtsZ^1-370 (domain or fragment)
chain: MFEPMELTNDAVIKVIGVGGGGGNAVEHMVRERIEGVEFFAVNTDAQALRKTAVGQTIQIGSGITKGLGAGANPEVGRNAADEDRDALRAALEGADMVFIAAGMGGGTGTGAAPVVAEVAKDLGILTVAVVTKPFNFEGKKRMAFAEQGITELSKHVDSLITIPNDKLLKVLGRGISLLDAFGAANDVLKGAVQGIAELITRPGLMNVDFADVRTVMSEMGYAMMGSGVASGEDRAEEAAEMAISSPLLEDIDLSGARGVLVNITAGFDLRLDEFETVGNTIRAFASDNATVVIGTSLDPDMNDELRVTVVATGIGMDKRPEITLVTNKQVQQPVMDRYQQHGMAPLTQEQKPVAKVVNDNAPQTAKEPD
Q: For B9, which “binding affinity relative to wild-type FtsZ (fold lower)” value [11] is on record?
A: Its value is about 3 fold.
